This note sets out measurements from article PMC10646970.

The target of the test is PD-L1 (programmed cell death ligand 1), N-terminal domain.

In the case of “wild-type (natural) PD-1 (from UniProt Q15116 25-170) (natural protein)”, the increase in IFN-gamma production in MDA-MB-231/PBMC coculture, 10 ug/mL protein, 48 h, ELISA; PD-L1 is that on the tumour cells; pair blocked: PD-1 on PBMCs / PD-L1 worked out at 92%.
